The text below walks through data of PMC3752404 (Molecular cell, 2011).

Series [1] deals with Swi6 (wild type, tagged: N-terminal 6xHis and C-terminal FLAG) (S. pombe) (UniProt P40381). Nature of the series: equilibrium competition with a fluorescently labeled DNA.
In series [2] the target is H3K9 2N(L47) dinucleosome. Description: native gel or EMSA. In general terms: Mobility shift assays separate free from complexed probe on a gel.
Series [3] has as its target H3K9 2N(L15) dinucleosome. Nature of the series: native gel or EMSA.
Series [4] addresses H3Kc9me3 12N(L47) nucleosome array. Description: native gel or EMSA.
Series [5] concerns the target H3Kc9me3 12N(L15) nucleosome array. Nature of the series: native gel or EMSA.
The target of series [6] is H3Kc9me3 2N(L15) dinucleosome. Nature of the series: native gel or EMSA.
Series [7] has as its target MLA methylated (H3Kc9me3) mononucleosome on the 147 bp 601 sequence. Description: native gel or EMSA.
Series [8] concerns the target H3Kc9me3 2N(L47) dinucleosome. Description: native gel or EMSA.
In series [9] the target is MLA methylated (H3Kc9me3) mononucleosome on the 147 bp 601 sequence. Description: AUC.
Series [10] deals with Swi6 chromoshadow domain (WT CSD) (S. pombe).
The target is the same in series [11]. Description: ITC.
The series “SEC” concerns the molecule itself. Nature of the series: SEC. (SEC sorts molecules by how far they enter the pores of the column.)
The series “SEC-MALS” concerns the molecule itself. Description: SEC-MALS.
A further series has as its target H3K9me3 tail peptide. Nature of the series: fluorescence polarisation. In general terms: Fluorescence polarisation rises when a labelled molecule tumbles more slowly, as on binding a larger partner.
The series “SEC-MALS + cross-linking” deals with the molecule itself. Nature of the series: SEC-MALS + cross-linking.
The series “cross-linking” concerns the molecule itself. Description: cross-linking.

Several values for one entry are separate records, joined by “and”; a condition that tells them apart may be missing. Identical values can stand only once. Bounds are passed on as bounds.

The stoichiometry N is the number of molecules, sites or subunits per partner or assembly. Usually Kd stands for the equilibrium constant for the complex coming apart.

Regarding “MLA methylated (H3Kc9me3) mononucleosome on the 147 bp 601 sequence (complex)”, in series [1], the fold specificity over H3K9 nucleosomes was determined as 5 fold.

On to “Swi6 (wild type, tagged: N-terminal 6xHis and C-terminal FLAG) (from UniProt P40381 1-328) (natural protein)”, for which the K1/2 stood at 32 nM in series [2], 156 nM in series [3], 62 nM in series [6] and 12 nM in [8]. The fold specificity over the H3K9 12N(L47) array (ratio of K1/2) in series [4] amounted to 5.4 fold. Besides, the fold specificity over the H3K9 12N(L15) array (ratio of K1/2) in [5] was found to be 25 fold. For the same molecule, the fold preference over H3K9 nucleosomes (ratio of K1/2) in series [7] was 5 fold. For the same molecule, the stoichiometry N in series [9] is 4.

In the case of “Swi6 (wild type, untagged) (from UniProt P40381 1-328) (natural protein)”, the fold increase of affinity on removing the tags in the series with nucleosomes and arrays amounted to 2.5 fold.

The molecule “Swi6 L315D (from UniProt P40381 1-328) (natural protein)” came in with a fold discrimination between methylated and unmethylated arrays in series [5] of 2 to 3 fold. Moreover, the stoichiometry N in series [9] came out at 2.

In [5], “Swi6 V82E-Y131W (from UniProt P40381 1-328) (natural protein)” had a fold increase of specificity compared to WT Swi6 of 7 fold and a fold specificity over the H3K9 12N(L15) array of 130 fold.

“Swi6 chromoshadow domain (WT CSD) (domain or fragment)” returned a stoichiometry N in [10] of 2. Also, the Kd in [11] is under 0.017 µM.

B1: Swi6 chromodomain (CD, aa 81-137) (domain or fragment, S. pombe, UniProt P40381 81-137, looked up)
chain: YVVEKVLKHRMARKGGGYEYLLKWEGYDDPSDNTWSSEADCSGCKQLIEAYWNEHGG
Regarding B1, the “stoichiometry N” value in “SEC” stood at 2.

B2: Swi6 V82E (natural protein, S. pombe, UniProt P40381 1-328, looked up)
chain: MKKGGVRSYRRSSTSKRSVIDDDSEPELPSMTKEAIASHKADSGSSDNEVESDHESKSSSKKLKENAKEEEGGEEEEEDEYEVEKVLKHRMARKGGGYEYLLKWEGYDDPSDNTWSSEADCSGCKQLIEAYWNEHGGRPEPSKRKRTARPKKPEAKEPSPKSRKTDEDKHDKDSNEKIEDVNEKTIKFADKSQEEFNENGPPSGQPNGHIESDNESKSPSQKESNESEDIQIAETPSNVTPKKKPSPEVPKLPDNRELTVKQVENYDSWEDLVSSIDTIERKDDGTLEIYLTWKNGAISHHPSTITNKKCPQKMLQFYESHLTFRENE
Turning to B2, the binding result in “SEC-MALS” is recorded as “binds”. For the same molecule, in the series with H3K9me3 tail peptide, the fold increase of binding was found to be 3 fold.

B3: Swi6 Y131W (natural protein, S. pombe, UniProt P40381 1-328, looked up)
chain: MKKGGVRSYRRSSTSKRSVIDDDSEPELPSMTKEAIASHKADSGSSDNEVESDHESKSSSKKLKENAKEEEGGEEEEEDEYVVEKVLKHRMARKGGGYEYLLKWEGYDDPSDNTWSSEADCSGCKQLIEAWWNEHGGRPEPSKRKRTARPKKPEAKEPSPKSRKTDEDKHDKDSNEKIEDVNEKTIKFADKSQEEFNENGPPSGQPNGHIESDNESKSPSQKESNESEDIQIAETPSNVTPKKKPSPEVPKLPDNRELTVKQVENYDSWEDLVSSIDTIERKDDGTLEIYLTWKNGAISHHPSTITNKKCPQKMLQFYESHLTFRENE
As for B3, the “fold tetramer formation over WT” value in the series “SEC-MALS” is about 1.6 fold.

B4: Swi6 (wild type, tagged: N-terminal 6xHis and C-terminal FLAG) (natural protein, S. pombe, UniProt P40381 1-328, looked up)
chain: MKKGGVRSYRRSSTSKRSVIDDDSEPELPSMTKEAIASHKADSGSSDNEVESDHESKSSSKKLKENAKEEEGGEEEEEDEYVVEKVLKHRMARKGGGYEYLLKWEGYDDPSDNTWSSEADCSGCKQLIEAYWNEHGGRPEPSKRKRTARPKKPEAKEPSPKSRKTDEDKHDKDSNEKIEDVNEKTIKFADKSQEEFNENGPPSGQPNGHIESDNESKSPSQKESNESEDIQIAETPSNVTPKKKPSPEVPKLPDNRELTVKQVENYDSWEDLVSSIDTIERKDDGTLEIYLTWKNGAISHHPSTITNKKCPQKMLQFYESHLTFRENE
Turning to B4, the “stoichiometry N” value in the series “SEC-MALS + cross-linking” was 8; in “cross-linking”, 2 and > 2.

B5: Swi6 V82E-Y131W (natural protein, S. pombe, UniProt P40381 1-328, looked up)
chain: MKKGGVRSYRRSSTSKRSVIDDDSEPELPSMTKEAIASHKADSGSSDNEVESDHESKSSSKKLKENAKEEEGGEEEEEDEYEVEKVLKHRMARKGGGYEYLLKWEGYDDPSDNTWSSEADCSGCKQLIEAWWNEHGGRPEPSKRKRTARPKKPEAKEPSPKSRKTDEDKHDKDSNEKIEDVNEKTIKFADKSQEEFNENGPPSGQPNGHIESDNESKSPSQKESNESEDIQIAETPSNVTPKKKPSPEVPKLPDNRELTVKQVENYDSWEDLVSSIDTIERKDDGTLEIYLTWKNGAISHHPSTITNKKCPQKMLQFYESHLTFRENE
Consider B5, for which, in “SEC-MALS”, the “fold tetramer formation over WT” value was about 3.5 fold; the “stoichiometry N” value was 4 and 8.
